Where a chain is given by its changes, count along the chain named.

First the molecules themselves.
T1: human BCMA recombinant antigen (human, UniProt Q02223 1-53)
T1 construct: range 1-53; also called human BCMA recombinant protein
T1 sequence (looked up): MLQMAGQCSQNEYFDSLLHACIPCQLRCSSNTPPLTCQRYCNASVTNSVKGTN

T2: cynomolgus monkey CD3εγ-Fc heterodimer (cynomolgus monkey)
T2 chain 1: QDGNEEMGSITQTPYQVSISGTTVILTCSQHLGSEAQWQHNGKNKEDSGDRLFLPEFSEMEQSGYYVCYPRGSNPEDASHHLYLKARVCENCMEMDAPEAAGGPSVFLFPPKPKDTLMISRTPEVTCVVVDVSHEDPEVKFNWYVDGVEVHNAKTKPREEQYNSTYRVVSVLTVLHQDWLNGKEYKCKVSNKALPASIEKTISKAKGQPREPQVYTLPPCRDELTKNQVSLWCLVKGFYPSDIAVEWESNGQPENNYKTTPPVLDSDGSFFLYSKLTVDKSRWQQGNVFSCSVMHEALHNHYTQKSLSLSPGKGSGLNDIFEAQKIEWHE
T2 chain 2: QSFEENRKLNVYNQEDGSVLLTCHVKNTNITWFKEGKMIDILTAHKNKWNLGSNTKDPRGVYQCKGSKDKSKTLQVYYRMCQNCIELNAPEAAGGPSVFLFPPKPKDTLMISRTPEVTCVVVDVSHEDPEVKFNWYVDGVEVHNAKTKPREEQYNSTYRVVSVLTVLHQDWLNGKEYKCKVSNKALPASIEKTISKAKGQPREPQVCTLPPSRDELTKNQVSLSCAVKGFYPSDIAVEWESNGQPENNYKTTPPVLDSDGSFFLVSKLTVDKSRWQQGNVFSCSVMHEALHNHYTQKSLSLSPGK

T3: human BCMA on cells (CHO-hBCMA clone 2C2; NCI-H929; RPMI-8226) (human, UniProt Q02223 1-184)
T3 construct: whole, on cells; also called Human BCMA-CHO; CHO-hBCMA-2C2
T3 sequence (looked up): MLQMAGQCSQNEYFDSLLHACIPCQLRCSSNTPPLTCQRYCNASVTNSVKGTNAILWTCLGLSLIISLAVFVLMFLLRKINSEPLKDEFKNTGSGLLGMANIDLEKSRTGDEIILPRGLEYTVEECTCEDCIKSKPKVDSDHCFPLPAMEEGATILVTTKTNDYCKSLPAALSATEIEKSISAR

B1: BCMA×CD3 κλ003 (bispecific antibody, human IgG4 S228P, kappa, lambda)
light 1: DIVLTQSPASLAVSPGQRATITCRASKSVSTSGYSYMHWYQKKPGQPPKLLIYLASNLESGVPARFSGSGSGTDFTLTINPVEAEDTANYYCQHSRELPWTFGQGTKVEIKRTVAAPSVFIFPPSDEQLKSGTASVVCLLNNFYPREAKVQWKVDNALQSGNSQESVTEQDSKDSTYSLSSTLTLSKADYEKHKVYACEVTHQGLSSPVTKSFNRGEC
heavy 1: QVQLVQSGSELKKPGASVKVSCKASGYIFTNFGMNWVREAPGQGLEWMGWINTYTGEQIYADGFTGRFVFSLDTSASTAYLQISSLKAEDTAVYFCARGEIYYGYDVGFVYWGQGTLVTVSSASTKGPSVFPLAPCSRSTSESTAALGCLVKDYFPEPVTVSWNSGALTSGVHTFPAVLQSSGLYSLSSVVTVPSSSLGTKTYTCNVDHKPSNTKVDKRVESKYGPPCPPCPAPEFEGGPSVFLFPPKPKDTLMISRTPEVTCVVVDVSQEDPEVQFNWYVDGVEVHNAKTKPREEQFNSTYRVVSVLTVLHQDWLNGKEYKCKVSNKGLASSIEKTISKAKGQPREPQVCTLPPSQEEMTKNQVSLSCAVKGFYPSDIAVEWESNGQPENNYKTTPPVLDSDGSFFLVSKLTVDKSRWQEGNVFSCSVMHEALHNHYTQKSLSLSLGK
light 2: QAVVTQEPSLTVSPGGTVTLTCRSSTGAVTTSNYANWVQEKPGQAPRGLIGGTNKRAPWTPARFSGSLLGGKAALTITGAQAEDEAEYYCVLWYSNLWVFGGGTKLTVLGQPKAAPSVTLFPPSSEELQANKATLVCLISDFYPGAVTVAWKADSSPVKAGVETTTPSKQSNNKYAASSYLSLTPEQWKSHRSYSCQVTHEGSTVEKTVAPTECS
heavy 2: EVQLVESGGGLVQPGGSLRLSCAASGFTFNTYAMNWVRKAPGKGLEWVGRIRSKYNNYATYYADSVKDRFTISRDDSKNSLYLQMNSLKTEDTAVYYCVRHGNFGNSYVSWFAYWGQGTLVTVSSASTKGPSVFPLAPCSRSTSESTAALGCLVKDYFPEPVTVSWNSGALTSGVHTFPAVLQSSGLYSLSSVVTVPSSSLGTKTYTCNVDHKPSNTKVDKRVESKYGPPCPPCPAPEFEGGPSVFLFPPKPKDTLMISRTPEVTCVVVDVSQEDPEVQFNWYVDGVEVHNAKTKPREEQFNSTYRVVSVLTVLHQDWLNGKEYKCKVSNKGLASSIEKTISKAKGQPREPQVYTLPPCQEEMTKNQVSLWCLVKGFYPSDIAVEWESNGQPENNYKTTPPVLDSDGSFFLYSKLTVDKSRWQEGNVFSCSVMHEALHNHYTQKSLSLSLGK
B2: BCMA×CD3 κλ005 (bispecific antibody, human IgG4 S228P, kappa, lambda)
light 1: B1 light 1
heavy 1: B1 heavy 1 with A76V
light 2: B1 light 2
heavy 2: B1 heavy 2
B3: BCMA×CD3 κλ004 (bispecific antibody, human IgG4 S228P, kappa, lambda)
light 1: B1 light 1 with S30T, M37I, N57D, S60A
heavy 1: B1 heavy 1
light 2: B1 light 2
heavy 2: B1 heavy 2
B4: BCMA×CD3 κλ006 (bispecific antibody, human IgG4 S228P, kappa, lambda)
light 1: B1 light 1 with S30T, M37I, N57D, S60A
heavy 1: B1 heavy 1 with A76V
light 2: B1 light 2
heavy 2: B1 heavy 2

T6 sequence (A0A2K5UD97 entry or part of it): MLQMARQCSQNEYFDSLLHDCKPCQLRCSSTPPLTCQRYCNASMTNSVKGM

In one experiment the target is T4, human CD3 on T cells (Jurkat cells; human peripheral blood CD4+ and CD8+ T cells) (human, UniProt P07766 23-207).
T4 construct: whole, on cells; also called CD3ε
T4 sequence (P07766 23-207): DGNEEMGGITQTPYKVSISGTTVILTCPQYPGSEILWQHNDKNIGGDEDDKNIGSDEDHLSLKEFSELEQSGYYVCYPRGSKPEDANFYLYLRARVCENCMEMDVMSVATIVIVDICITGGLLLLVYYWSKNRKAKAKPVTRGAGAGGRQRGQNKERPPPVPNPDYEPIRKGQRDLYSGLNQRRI
Put plainly: flow cytometry, peripheral blood CD4+ T cells (PBMC). Here is the method:
(§1) Fresh human or cynomolgus monkey peripheral blood was taken and PBMC was isolated by Ficoll-Paque Plu (GE, 17-1440-03). […] 50 μL/well Alexa Fluro647 labeled goat anti-human IgG Fc (1:300 dilution) was added to the secondary antibody, ice bath for 20 min, 50 μL/well PI was added after washing once, incubated for 5 min, and flow cytometer (BD C6) was used to perform detection.
For orientation: Flow cytometry measures light scatter and fluorescence of single cells or particles in a stream.
A word on the EC50: it is the concentration giving half of the maximal effect. Molecule B1 yielded an EC50 of 87 nM.
The same measure, in the same setting: under B2 stands 66 nM.
Still for that read-out and setting: then B3, with 77 nM.
Same read-out and setting: under B4 stands 91 nM.

Another experiment concerns the target T4, human CD3 on T cells (Jurkat cells; …). Put plainly: flow cytometry, Jurkat cells. Here is the method: Jurkat cells in the logarithmic growth phase were added with 200 μg/mL murine IgG (Jackson ImmunoResearch, 115-005-03) and incubated on ice for 30 min. […] 50 μL/well Alexa Fluro647 labeled goat anti-human IgG Fc (1:300 dilution) was added to the secondary antibody, incubated on ice for 20 min, 50 μL/well PI was added after washing once, incubated for 5 min, and flow cytometer (BD C6) was used to perform detection.
B1 showed an EC50 of 66 nM.
The same measure, in the same setting: then B2, with 51 nM.
Still for that read-out and setting: then B3, with 61 nM.
Same read-out and setting: then B4, with 56 nM.

For a further experiment, the target named is T5, cynomolgus monkey BCMA on CHO cells (CHO-cynoBCMA clone 1A2) (cynomolgus monkey, UniProt A0A2K5UD97 1-183).
T5 construct: whole, on cells; also called Cynomolgus monkey BCMA-CHO; CHO-cynoBCMA-1A2
T5 sequence (A0A2K5UD97 entry or part of it): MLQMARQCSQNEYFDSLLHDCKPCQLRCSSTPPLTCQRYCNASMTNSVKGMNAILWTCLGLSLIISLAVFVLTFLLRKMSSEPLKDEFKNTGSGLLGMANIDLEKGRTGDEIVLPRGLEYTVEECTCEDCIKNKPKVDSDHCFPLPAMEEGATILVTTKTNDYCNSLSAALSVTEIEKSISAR
Put plainly: flow cytometry, CHO-cynomolgus monkey BCMA cells. Here is the method: (§2) 50 μL/well Alexa Fluro647 labeled goat anti-human IgG Fc (1:300 dilution) was added to the secondary antibody, incubated on ice for 20 min, 50 μL/well PI solution (1:300) was added after washing once, incubated for 5 min, and flow cytometer was used to perform detection.
As to B1, a half-maximal response (EC50) required 3 nM.
The same measure, in the same setting: then B2, with 3 nM; and B3, with 3 nM.
B4 displayed an EC50 of 3 nM.

The next experiment deals with T1, human BCMA recombinant antigen. Nature of the experiment: competition ELISA, coated human BCMA, antibody varied, then biotinylated human APRIL at 240 ng/mL, SA-HRP. Here is the method:
1 μg/mL human BCMA recombinant antigen was prepared with pH 9.6 carbonic acid buffer, added to a maxisorp96-well plate, and coated overnight at 4° C. After blocking with 5% skim milk/PBS for 1 h at room temperature, 50 μL antibody per well (4-fold dilution from 30 μg/mL for a total of 10 gradients) was added and incubated for 30 min at room temperature. […] After 3 washes with 0.05% PBST (PBS+0.05% Tween-20) and PBS respectively, 100 μL of SA-HRP (diluted 1:8000) was added to each well and incubated at room temperature for 45 min. Washing 3 times with 0.05% PBST and PBS respectively, 100 μL TMB color-developing solution was added into each well, after 10 min, 50 μL concentrated sulfuric acid was added into each well to stop the reaction, read OD450 nm by a microplate reader, and perform three-parameter fitting curve using Graphpad software.
(An ELISA detects its analyte on a solid surface through an enzyme-linked reagent.)
As to B1, the “IC50 (read off the curve)” value is roughly 8 nM.
Same read-out and setting: under B2 stands roughly 3 nM.
Regarding B3, the “IC50 (read off the curve)” value was roughly 5 nM.
On the same count and under the same terms, then B4, with roughly 2 nM.

A further experiment shares this target. Put plainly: SPR (Biacore T200), antigen amine-coupled to CM5, antibody as analyte, 1:1 model. Here is the method: (§3) 10 μg/mL human or cynomolgus monkey BCMA or CD3εγ recombinant antigen was bound to a CM5 chip (GE healthcare) by amino coupling, controlling the amount of antigen bound to approximately 200 RU. After the baseline plateau, gradient-diluted antibodies (from 10 μg/mL, 2-fold dilutions for 7 gradients) flowed through the chip at a flow rate of 30 μL/min for a binding time of 350 seconds and a dissociation time of 600 seconds. Kinetic constants were fitted using Biacore T200 evaluation software with a 1:1 binding model.
In general terms: In SPR one partner is held on a chip, and binding of the other changes the refractive index at the surface.
As usually defined, the Kd is a measure of binding affinity in units of concentration. For the molecule B1, the dissociation constant Kd was 1.3 nM.
As to B2, the equilibrium dissociation constant (Kd) stood at 1.1 nM.
Same read-out and setting: then B3, with 1 nM; and B4, with 1.2 nM.

Another experiment has as its target T6, cynomolgus monkey BCMA recombinant antigen (cynomolgus monkey, UniProt A0A2K5UD97 1-51).
T6 construct: range 1-52
The description is as above. Here is the method:
as §3
As to B1, the dissociation constant Kd came out at 0.16 nM.
On the same count and under the same terms, then B2, with 0.09 nM; and B3, with 0.12 nM; and B4, with 0.1 nM.

The target of another experiment is T2, cynomolgus monkey CD3εγ-Fc heterodimer. Described as above. Here is the method:
as §3
Take B1: the Kd was determined as 43 nM.
Still for that read-out and setting: then B2, with 20 nM; and B3, with 43 nM.
Molecule B4 had a Kd of 33 nM.

A further experiment has as its target T3, human BCMA on cells (CHO-hBCMA clone …). Nature of the experiment: flow cytometry, RPMI-8226 cells. Here is the method:
(§4) The primary antibody was washed off, 50 μL/well Alexa Fluro647 labeled goat anti-human IgG Fc (1:300 dilution) was added, incubated on ice for 20 min, 50 μL/well PI was added after washing once, incubated for 5 min, and flow cytometer was used to perform detection.
On to B1, for which the EC50 was found to be 34 nM.
The same measure, in the same setting: then B2, with 38 nM; and B3, with 39 nM; and B4, with 19 nM.

The target is the same in another experiment. Nature of the experiment: flow cytometry, CHO-human BCMA cells. Here is the method:
as §2
With B1, the EC50 amounted to 16 nM.
As for B2, the concentration for a half-maximal effect (EC50) was found to be 24 nM.
The same measure, in the same setting: then B3, with 22 nM; and B4, with 16 nM.

The target of a further experiment is T4, human CD3 on T cells (Jurkat cells; …). Put plainly: flow cytometry, peripheral blood CD8+ T cells (PBMC). Here is the method:
as §1
For the molecule B1, the EC50 came to 97 nM.
The molecule B2 yielded an EC50 of 60 nM.
On to B3, for which the EC50 was found to be 84 nM.
Same read-out and setting: then B4, with 93 nM.

For another experiment, the target named is T3, human BCMA on cells (CHO-hBCMA clone …). Put plainly: flow cytometry, NCI-H929 cells. Here is the method:
as §4
Molecule B1 yielded an EC50 of 34 nM.
On the same count and under the same terms, then B2, with 33 nM; and B3, with 36 nM.
Still for that read-out and setting: then B4, with 32 nM.

The record behind these values is patent publication US20250277045A1 (KEYMED BIOSCIENCES, published 2025).
